Results on one molecule are retold here after US20040002450A1, “Y17 - isolated molecules comprising epitopes containing sulfated moieties, antibodies to such epitopes, and uses thereof” (priority 2000, published 2004).

Non-standard residues stand in square brackets, D forms with d. No end group written: not given here. sY = N[C@@H](Cc1ccc(OS(=O)(=O)O)cc1)C(=O)O

Holding throughout (conditions): remark: other sources report otherwise
In assay [1] the target is Y1 scFv. Kind of assay: competition ELISA on coated glycocalicin, 0.25 µg/well Y1, peptide 25 µM.
Chain of Y1 scFv (chain, as listed by the source): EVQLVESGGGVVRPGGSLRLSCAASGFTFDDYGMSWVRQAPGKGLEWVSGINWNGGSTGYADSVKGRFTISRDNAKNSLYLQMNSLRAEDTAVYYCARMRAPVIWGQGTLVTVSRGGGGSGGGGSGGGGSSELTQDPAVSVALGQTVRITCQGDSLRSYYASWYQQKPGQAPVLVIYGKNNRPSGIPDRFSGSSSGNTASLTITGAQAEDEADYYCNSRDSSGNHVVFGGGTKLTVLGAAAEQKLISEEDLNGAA
For assay [2], the target named is Y1 scFv. Kind of assay: competitive FACS, 1 µg Y1-scFv on ~10^7 washed platelets, peptide 2.5 µM.
Assay [3] deals with Y1 scFv. The assay can be described thus: competitive FACS, 1 µg Y1-scFv on ~10^7 washed platelets, peptide 200 µM.
Assay [4] deals with Y1 scFv. The assay can be described thus: competition ELISA on coated glycocalicin, 0.25 µg/well Y1, peptide 0.5 µM.
Assay [5] deals with Y1 scFv. Kind of assay: competition ELISA on coated glycocalicin, 0.25 µg/well Y1, peptide 2.5 µM. A general note: ELISA stands for enzyme-linked immunosorbent assay.
Assay [6] concerns the target Y1 scFv. The assay can be described thus: competition ELISA on coated glycocalicin, 0.25 µg/well Y1, peptide 200 µM.

With GDEGDTDL[sY]D[sY][sY]PEEDTE [P-1-S], the Residual Binding of Y1 (% of baseline) (% of baseline) is 25 in assay [1], 89 in assay [4], 62 in assay [5] and 0 in assay [6]. Also, the Residual Binding of Y1 (% of baseline) (Geo Mean) (% of baseline) in assay [2] was determined as 41; in assay [3] it was 5.
